As usually defined, the Kd is a measure of binding affinity in units of concentration. The term koff denotes the first-order rate constant of dissociation.

Experiment [1] concerns the target human recombinant biotinylated FcγRIIb (CD32b) (human) (UniProt P31994). Description: BLI.
For experiment [2] the target is unchanged. Description: BLI. This is another data set of the same source. A general note: Biolayer interferometry detects binding as a change in optical thickness at a sensor tip.

Read-outs that look alike come from different tables or passages of the source.

human recombinant biotinylated FcγRIIb (CD32b) (human), sequence (P31994 43-217): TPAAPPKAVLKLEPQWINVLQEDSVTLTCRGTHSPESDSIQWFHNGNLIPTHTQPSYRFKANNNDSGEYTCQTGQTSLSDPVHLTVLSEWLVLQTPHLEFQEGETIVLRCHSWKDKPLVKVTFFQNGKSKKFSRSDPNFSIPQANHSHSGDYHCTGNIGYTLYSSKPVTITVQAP
recombinant anti-Fel d 1 monoclonal antibody F127, human IgG4 format, sequence (P01861 whole entry, looked up): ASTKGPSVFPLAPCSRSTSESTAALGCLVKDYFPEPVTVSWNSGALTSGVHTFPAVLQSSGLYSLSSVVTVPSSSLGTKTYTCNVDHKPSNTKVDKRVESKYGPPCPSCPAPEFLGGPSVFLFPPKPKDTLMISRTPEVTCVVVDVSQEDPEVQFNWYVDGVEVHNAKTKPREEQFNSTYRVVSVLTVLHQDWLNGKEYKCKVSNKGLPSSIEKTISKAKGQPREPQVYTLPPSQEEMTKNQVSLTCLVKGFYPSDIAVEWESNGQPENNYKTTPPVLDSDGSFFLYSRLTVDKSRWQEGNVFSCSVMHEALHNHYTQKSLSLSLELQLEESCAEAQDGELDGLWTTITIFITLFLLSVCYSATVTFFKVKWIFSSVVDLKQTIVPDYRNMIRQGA
native human IgG4, sequence (P01861 whole entry, looked up): as above
recombinant anti-Fel d 1 monoclonal antibody A044, human IgG4 format, sequence (P01861 whole entry, looked up): as above
recombinant anti-Fel d 1 monoclonal antibody G078, human IgG4 format, sequence (P01861 whole entry, looked up): as above

Turning to “recombinant anti-Fel d 1 monoclonal antibody G078, human IgG4 format (from UniProt P01861)”, in experiment [1], the Kd was found to be 34 nM and the dissociation rate constant (koff) is 0.0016 s⁻¹. “recombinant anti-Fel d 1 monoclonal antibody F127, human IgG4 format (from UniProt P01861)”: the results for the koff in experiment [2] and in experiment [1] were 0.00126 s⁻¹ and 0.0014 s⁻¹, respectively. The Kd in experiment [1] was found to be 27 nM. Consider “recombinant anti-Fel d 1 monoclonal antibody A044, human IgG1 format (from UniProt P01857)”, for which, in experiment [1], the Kd was 18 nM. For the substance “recombinant anti-Fel d 1 monoclonal antibody A044, human IgG4 format (from UniProt P01861)”, in experiment [1], the dissociation constant (Kd) worked out at 18 nM and the off-rate constant (koff) was found to be 0.00081 s⁻¹. For the substance “recombinant anti-Fel d 1 monoclonal antibody F127, human IgG1 format (from UniProt P01857)”, the equilibrium dissociation constant (Kd) in experiment [1] stood at 27 nM. With native human IgG4 (from UniProt P01861), in experiment [1], the Kd amounted to 31 nM and the dissociation rate constant (koff) stood at 0.002 s⁻¹.

Source of the values: PMC9582512.
